Positions count from the first letter of the chain named. One block for each molecule: values may come before it.
Legend:
Dupilumab analogue = experiment: ELISA; conditions: dupilumab analogue 100 pM; read off a plot
[1] = molecular target: T1, extracellular domain of human IL-4Rα (residues 26–232), C-terminal 6× His (human, UniProt P24394); experiment: BLI; OctetRED96; Ab (1 μg/mL) captured on anti-human IgG Fc capture (AHC) biosensors at low density (0.6 to 0.8 nm), soluble monomeric IL-4Rα as analyte; 25 °C, PBS pH 7.4, 0.02% Tween 20; association 300 s, dissociation 600-900 s; 1:1 binding model; conditions: both partners purified
T1 construct: human interleukin-4 receptor alpha subunit, extracellular domain, residues 26-232; Subcloned into the pSecTag2A vector; N-glycosylated (~45 kDa, ~26 kDa after PNGase F); also called wild-type IL-4Rα; soluble IL-4Rα; source: HEK293F, transiently transfected, purified (Ni-NTA); not shown: His6, C-terminal, kept
T1 sequence (P24394 26-232): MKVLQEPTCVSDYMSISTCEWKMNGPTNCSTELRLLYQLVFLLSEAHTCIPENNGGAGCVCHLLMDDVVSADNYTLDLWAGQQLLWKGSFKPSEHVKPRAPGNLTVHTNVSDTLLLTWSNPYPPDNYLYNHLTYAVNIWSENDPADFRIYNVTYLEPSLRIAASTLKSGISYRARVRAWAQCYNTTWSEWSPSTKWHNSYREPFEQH

insulin = molecular target: T2, insulin (Homo sapiens (assumed), UniProt P01308); experiment: ELISA; non-specificity ELISA: hemocyanin (150 ng/well) and insulin (150 ng/well) coated (also dsDNA and cardiolipin); conditions: both partners purified
T2 construct: insulin B chain; insulin A chain; Polyreactivity antigen; source: bought: Sigma, I9278
T2 sequence (P01308 whole entry, looked up): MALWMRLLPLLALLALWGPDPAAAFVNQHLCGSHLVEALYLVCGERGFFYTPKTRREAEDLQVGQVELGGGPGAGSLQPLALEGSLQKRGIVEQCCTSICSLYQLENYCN

Molecule: extracellular domain of human IL-4Rα (residues 26–232), C-terminal 6× His (from UniProt P24394) Y208A
percent of parent (Dupilumab analogue): 100%

Molecule: extracellular domain of human IL-4Rα (residues 26–232), C-terminal 6× His (from UniProt P24394) Y38A
percent of parent (Dupilumab analogue): 120%

B1: 4R34, human IgG1 (antibody, V domains shown)
VH: EVQLLESGGGLVQPGGSLRLSCAASGFTFSNYAMSWVRQAPGKGLEWVSAISSGGGNIYYADSVKGRFTISRDNSKNTLYLQMNSLRAEDTAVYYCARVHRAFDYWGQGTLVTVSS
VL: QSVLTQPPSASGTPGQRVTISCSGSSSNIGSNTFNWYQQLPGTAPKLLIYADSHRPSGVPDRFSGSKSGTSASLAISGLRSEDEADYYCGTWDYSLSGYVLGGGTKLTVL
Kd [1]: 1.04 nM
koff [1]: 0.00361 s⁻¹
kon [1]: 3.47e+06 M⁻¹ s⁻¹

B2: 4R34.1.17, human IgG1 (antibody, V domains shown)
VH: B1 VH with S52T, G54S, G56R, N57S
VL: B1 VL with S26T, S27K, N28Q, I29M, G30H, S31N, N32Y, T33Q
Kd [1]: 0.179 nM
koff [1]: 0.000879 s⁻¹
kon [1]: 4.92e+06 M⁻¹ s⁻¹

B3: 4R34.19, human IgG1 (antibody, V domains shown)
VH: B1 VH with S52T, G54S
VL: B1 VL with T91Y
Kd [1]: 0.532 nM
koff [1]: 0.00243 s⁻¹
kon [1]: 4.58e+06 M⁻¹ s⁻¹

B6: 4R34.1.18, human IgG1 (antibody, V domains shown)
VH: B1 VH with S52T, G54S, G56R, N57S
VL: B1 VL with S26L, S27L, N28R, I29G, G30E, S31N, N32L, T33Q, S97R
Kd [1]: 0.29 nM
koff [1]: 0.00175 s⁻¹
kon [1]: 6.05e+06 M⁻¹ s⁻¹

B7: 4R34.1.13, human IgG1 (antibody, V domains shown)
VH: B1 VH with S52T, G54S, G56R, N57S
VL: B1 VL with S26A, S27Q, N28F, I29G, G30S, S31R, N32D, T33N, S97R
Kd [1]: 0.208 nM
koff [1]: 0.00107 s⁻¹
kon [1]: 5.12e+06 M⁻¹ s⁻¹

B8: 4R34.1.11, human IgG1 (antibody, V domains shown)
VH: B1 VH with S52T, G54S, G56R, N57S
VL: B1 VL with S27A, I29S, G30R, S31T, N32D, T33G, S97R
Kd [1]: 0.21 nM
koff [1]: 0.000968 s⁻¹
kon [1]: 4.62e+06 M⁻¹ s⁻¹

B9: 4R34.2, human IgG1 (antibody, V domains shown)
VH: B1 VH with S52T, G54S, G56A
VL: B1 VL with S97R
Kd [1]: 0.853 nM
koff [1]: 0.00401 s⁻¹
kon [1]: 4.7e+06 M⁻¹ s⁻¹

B10: 4R34.1.21, human IgG1 (antibody, V domains shown)
VH: B1 VH with S52T, G54S, G56R, N57S
VL: B1 VL with S26A, S27A, N28L, I29D, G30L, N32P, T33S
Kd [1]: 0.228 nM
koff [1]: 0.00106 s⁻¹
kon [1]: 4.63e+06 M⁻¹ s⁻¹

B11: 4R34.1, human IgG1 (antibody, V domains shown)
VH: B1 VH with S52T, G54S, G56R, N57S
VL: B1 VL
Kd [1]: 0.401 nM
koff [1]: 0.00172 s⁻¹
kon [1]: 4.28e+06 M⁻¹ s⁻¹

More lines, now with the values ahead:

percent of parent (Dupilumab analogue): 76%
Molecule: extracellular domain of human IL-4Rα (residues 26–232), C-terminal 6× His (from UniProt P24394) V93A

percent of parent (Dupilumab analogue): 100%
Molecule: extracellular domain of human IL-4Rα (residues 26–232), C-terminal 6× His (from UniProt P24394) S95A

percent of parent (Dupilumab analogue): 100%
Molecule: extracellular domain of human IL-4Rα (residues 26–232), C-terminal 6× His (from UniProt P24394) D92A

percent of parent (Dupilumab analogue): 73%
Molecule: extracellular domain of human IL-4Rα (residues 26–232), C-terminal 6× His (from UniProt P24394) D97A

percent of parent (Dupilumab analogue): 100%
Molecule: extracellular domain of human IL-4Rα (residues 26–232), C-terminal 6× His (from UniProt P24394) L67A

percent of parent (Dupilumab analogue): 97%
Molecule: extracellular domain of human IL-4Rα (residues 26–232), C-terminal 6× His (from UniProt P24394) L68A

binding result (insulin): no binding
Kd [1]: 0.178 nM
koff [1]: 0.000877 s⁻¹
kon [1]: 4.93e+06 M⁻¹ s⁻¹
B4: 4R34.1.19, human IgG1 (antibody, V domains shown)
VH: B1 VH with N31R, Y32H, S35A, S52T, G54S, G56R, N57S
VL: B1 VL with S26P, S27L, N28F, I29P, G30D, N32G, T33S

Kd [1]: 0.716 nM
koff [1]: 0.00371 s⁻¹
kon [1]: 5.18e+06 M⁻¹ s⁻¹
B5: 4R34.29, human IgG1 (antibody, V domains shown)
VH: B1 VH with S52T, S53A, N57S
VL: B1 VL

Source: PMC6533264 (Scientific Reports, 2019)
